Five molecules from article PMC2820149 (Journal of the American Chemical Society, 2010) can be followed below.

In data set [1] the test system is Pa0142 homologue (gi|44264246).
Substrate in data set [2]: Nc1nccc(O)n1
The data set is described as follows: coupled ammonia assay. The following applies: pH 8.0, 30 °C. The class given is biochemical, Pseudomonas aeruginosa.

Substrate in data set [3]: Nc1nc2nc[nH]c2c(=O)[nH]1
Kind of data set: coupled ammonia assay. The format is biochemical, Pseudomonas aeruginosa. The note with it: pH 8.0, 30 °C.

Substrate in data set [4]: Nc1nc2nc[nH]c2c(=O)[nH]1
Kind of data set: deamination kinetics. The format is biochemical, Pseudomonas aeruginosa.

Substrate in data set [5]: Nc1nc2nc[nH]c2c(=O)[nH]1
The data set is described as follows: deamination kinetics. The format is biochemical, Escherichia coli.

For orientation: Km means the concentration of substrate that gives half-maximal velocity. As for `Nc1nccc(=O)[nH]1` [compound 3, isocytosine], the Km in data set [1] turned out to be 1600 ± 200 µM.

For `Nc1nc2[nH]cnc2c(=O)[nH]1` [compound 2, guanine], the Km in data set [1] came out at 1000 ± 100 µM.

B1: Pa0142 (Pseudomonas aeruginosa PAO1) (protein)
chain: MSRTWIRNPLAIFTANGLDAAGGLVVEDGRIVELLGAGQQPAQPCASQFDASRHVVLPGLVNTHHHFYQTLTRAWAPVVNQPLFPWLKTLYPVWARLTPEKLELATKVALAELLLSGCTTAADHHYLFPGGLEQAIDVQAGVVEELGMRAMLTRGSMSLGEKDGGLPPQQTVQEAETILADSERLIARYHQRGDGARVQIALAPCSPFSVTPEIMRASAEVAARHDVRLHTHLAETLDEEDFCLQRFGLRTVDYLDSVGWLGPRTWLAHGIHFNAEEIRRLGEAGTGICHCPSSNMRLASGICPTVELEAAGAPIGLGVDGSASNDASNMILEARQALYLQRLRYGAERITPELALGWATRGSARLLGRSDIGELAPGKQADLALFKLDELRFSGSHDPLSALLLCAADRADRVMVGGAWRVVDGAVEGLDLAALIARHRAAASALIAG
The kcat is the number of substrate molecules converted per active site and unit of time at saturation. In the case of B1, in “coupled ammonia assay [2]”, the Michaelis-Menten constant (Km) was 1800 ± 100 µM and the kcat was determined as 3.9 ± 0.1 s⁻¹. Moreover, in “coupled ammonia assay [3]”, the Michaelis-Menten constant (Km) worked out at 2600 ± 600 µM and the catalytic constant (kcat) is 3.3 ± 0.6 s⁻¹.

B2: Pa0134 (Pseudomonas aeruginosa PAO1) (protein)
chain: MNDAVPAGNFVPPLILHSDHGGSAMSSSAHRGRILHFLGDPAKLGDKAWEYFEDGLLWIEHGHVRALDHATYLLPQLPADLPLEEHPQRLLLPGFVDCHVHYPQLGVIASYGTQLLDWLETHTFPAEQRFADAGYAAAQAELFLDELLRHGTTTALVFGTVHAVSAEAFFQAAQKRRLRMIAGKVLMDRNAPPALCDTAASGYAESRALIERWHGNGRLQYAVTPRFAPTSSPEQLAAAARLLDEYPGVYLHTHLSENLKEVAWVGELFPQAQDYLDVYHRAGLVGERSVFAHGIHLSERECRCLAHKNAALAHCPSSNLFIGSGLFDLGRAQQYGIRVGIGSDVGGGTSLSLLANLADAYKIQQLRGTSLDPFQALYLATLGGARALDLDGLVGNFLPGREADFVALDLAATPMIAQRMEHARGLADTLFVLNTLGDDRAVAETWVMGERRHVKG
Regarding B2, in “deamination kinetics [4]”, the Km came out at 500 ± 90 µM and the turnover number (kcat) came out at 21 ± 2 s⁻¹.

B3: b2883 (Escherichia coli K-12) (protein)
chain: MMSGEHTLKAVRGSFIDVTRTIDNPEEIASALRFIEDGLLLIKQGKVEWFGEWENGKHQIPDTIRVRDYRGKLIVPGFVDTHIHYPQSEMVGAYGEQLLEWLNKHTFPTERRYEDLEYAREMSAFFIKQLLRNGTTTALVFGTVHPQSVDALFEAASHINMRMIAGKVMMDRNAPDYLLDTAESSYHQSKELIERWHKNGRLLYAITPRFAPTSSPEQMAMAQRLKEEYPDTWVHTHLCENKDEIAWVKSLYPDHDGYLDVYHQYGLTGKNCVFAHCVHLEEKEWDRLSETKSSIAFCPTSNLYLGSGLFNLKKAWQKKVKVGMGTDIGAGTTFNMLQTLNEAYKVLQLQGYRLSAYEAFYLATLGGAKSLGLDDLIGNFLPGKEADFVVMEPTATPLQQLRYDNSVSLVDKLFVMMTLGDDRSIYRTYVDGRLVYERN
As for B3, in the data set “deamination kinetics [5]”, the Km came to 150 ± 10 µM and the kcat came to 12.5 ± 0.2 s⁻¹.
